Publication PMC6291300
Read-outs that look alike come from different tables or passages of the source.

Key:
[1] = target: Human FcRn (α-chain and β2m) on stably transfected MDCK cells (human) (UniProt P55899); assay: flow cytometry on cells
[2] = target: Human FcRn (α-chain and β2m) on stably transfected MDCK cells (human) (UniProt P55899); assay: flow cytometry on cells; remark: listed apart in the source
[3] = target: Rozanolixizumab (1519.g57 IgG4P); assay: SPR
[4] = target: Rozanolixizumab (1519.g57 IgG4P); assay: SPR; remark: listed apart in the source
[5] = target: Cynomolgus monkey FcRn (α-chain and β2m) on stably transfected MDCK cells (cynomolgus monkey) (UniProt Q8SPV9); assay: flow cytometry on cells
Chain of UniProt Q8SPV9 (Q8SPV9 24-365, chain 1 of 2): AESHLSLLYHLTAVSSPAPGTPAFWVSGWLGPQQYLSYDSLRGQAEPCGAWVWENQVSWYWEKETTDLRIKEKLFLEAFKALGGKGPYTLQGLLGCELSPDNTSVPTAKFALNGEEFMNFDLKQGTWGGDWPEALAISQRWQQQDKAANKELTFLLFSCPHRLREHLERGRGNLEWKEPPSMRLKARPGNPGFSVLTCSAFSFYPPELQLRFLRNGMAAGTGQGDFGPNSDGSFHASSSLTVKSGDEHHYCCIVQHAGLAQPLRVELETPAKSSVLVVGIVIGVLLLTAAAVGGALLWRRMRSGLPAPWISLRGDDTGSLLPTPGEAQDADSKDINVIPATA
Chain of UniProt Q8SPV9 (Q8SPW0 21-119, chain 2 of 2, further chain): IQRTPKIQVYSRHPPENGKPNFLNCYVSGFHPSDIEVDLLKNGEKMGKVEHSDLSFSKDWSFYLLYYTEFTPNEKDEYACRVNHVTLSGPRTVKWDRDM

[6] = target: Rozanolixizumab (1519.g57 IgG4P); assay: SPR; remark: listed apart in the source

## 1519.g57 Fab’
[1]
  Kd: 0.42 nM
[2]
  Kd: 0.44 nM

## Human FcRn extracellular domain (α-chain with β2-microglobulin) (from UniProt P55899 24-297; P61769 21-119) (complex)
[3]
  Kd: < 0.023 nM
[4]
  Kd: 0.034 nM

## Rozanolixizumab (1519.g57 IgG4P) (antibody)
[1]
  Kd: 0.43 nM
[5]
  Kd: 1 nM
[2]
  Kd: 0.37 nM

B1: Rat FcRn extracellular domain (α-chain with β2-microglobulin) (complex)
chain 1: AEPRLPLMYHLAAVSDLSTGLPSFWATGWLGAQQYLTYNNLRQEADPCGAWIWENQVSWYWEKETTDLKSKEQLFLEAIRTLENQINGTFTLQGLLGCELAPDNSSLPTAVFALNGEEFMRFNPRTGNWSGEWPETDIVGNLWMKQPEAARKESEFLLTSCPERLLGHLERGRQNLEWKEPPSMRLKARPGNSGSSVLTCAAFSFYPPELKFRFLRNGLASGSGNCSTGPNGDGSFHAWSLLEVKRGDEHHYQCQVEHEGLAQPLTVDLDSPARSS
chain 2: IQKTPQIQVYSRHPPENGKPNFLNCYVSQFHPPQIEIELLKNGKKIPNIEMSDLSFSKDWSFYILAHTEFTPTETDVYACRVKHVTLKEPKTVTWDRDM
[6]
  Kd: 99 nM
